Biological target: IIbIIIa receptor on human platelets (human) (UniProt P08514)
Chain of UniProt P08514 (P08514 32-1039, chain 1 of 2): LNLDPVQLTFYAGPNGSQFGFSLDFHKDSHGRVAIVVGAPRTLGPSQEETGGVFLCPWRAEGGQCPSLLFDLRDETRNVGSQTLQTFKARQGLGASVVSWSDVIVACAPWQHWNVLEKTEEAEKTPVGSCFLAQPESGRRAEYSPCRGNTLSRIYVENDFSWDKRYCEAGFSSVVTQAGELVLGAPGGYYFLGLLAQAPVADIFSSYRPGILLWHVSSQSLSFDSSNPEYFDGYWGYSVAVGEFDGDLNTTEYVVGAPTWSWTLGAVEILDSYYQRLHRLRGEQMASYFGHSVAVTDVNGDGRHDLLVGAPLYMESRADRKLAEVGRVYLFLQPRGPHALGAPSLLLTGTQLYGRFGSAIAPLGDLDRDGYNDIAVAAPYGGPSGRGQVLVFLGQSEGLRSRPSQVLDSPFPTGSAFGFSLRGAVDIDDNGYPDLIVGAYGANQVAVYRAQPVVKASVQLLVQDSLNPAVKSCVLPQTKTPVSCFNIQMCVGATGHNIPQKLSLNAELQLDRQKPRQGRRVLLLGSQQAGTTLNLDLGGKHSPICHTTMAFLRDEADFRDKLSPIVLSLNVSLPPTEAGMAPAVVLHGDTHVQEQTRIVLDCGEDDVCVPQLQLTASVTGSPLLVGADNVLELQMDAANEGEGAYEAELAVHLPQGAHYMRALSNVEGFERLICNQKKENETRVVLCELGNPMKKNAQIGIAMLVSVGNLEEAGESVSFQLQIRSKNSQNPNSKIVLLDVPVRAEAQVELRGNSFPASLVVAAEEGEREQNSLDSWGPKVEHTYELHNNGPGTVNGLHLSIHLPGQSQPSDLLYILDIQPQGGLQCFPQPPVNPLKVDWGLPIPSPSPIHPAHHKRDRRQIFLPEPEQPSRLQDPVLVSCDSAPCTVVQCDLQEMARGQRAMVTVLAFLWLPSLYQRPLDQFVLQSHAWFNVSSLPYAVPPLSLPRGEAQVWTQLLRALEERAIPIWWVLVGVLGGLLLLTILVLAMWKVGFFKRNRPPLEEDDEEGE
Chain of UniProt P08514 (P05106 27-788, chain 2 of 2, further chain): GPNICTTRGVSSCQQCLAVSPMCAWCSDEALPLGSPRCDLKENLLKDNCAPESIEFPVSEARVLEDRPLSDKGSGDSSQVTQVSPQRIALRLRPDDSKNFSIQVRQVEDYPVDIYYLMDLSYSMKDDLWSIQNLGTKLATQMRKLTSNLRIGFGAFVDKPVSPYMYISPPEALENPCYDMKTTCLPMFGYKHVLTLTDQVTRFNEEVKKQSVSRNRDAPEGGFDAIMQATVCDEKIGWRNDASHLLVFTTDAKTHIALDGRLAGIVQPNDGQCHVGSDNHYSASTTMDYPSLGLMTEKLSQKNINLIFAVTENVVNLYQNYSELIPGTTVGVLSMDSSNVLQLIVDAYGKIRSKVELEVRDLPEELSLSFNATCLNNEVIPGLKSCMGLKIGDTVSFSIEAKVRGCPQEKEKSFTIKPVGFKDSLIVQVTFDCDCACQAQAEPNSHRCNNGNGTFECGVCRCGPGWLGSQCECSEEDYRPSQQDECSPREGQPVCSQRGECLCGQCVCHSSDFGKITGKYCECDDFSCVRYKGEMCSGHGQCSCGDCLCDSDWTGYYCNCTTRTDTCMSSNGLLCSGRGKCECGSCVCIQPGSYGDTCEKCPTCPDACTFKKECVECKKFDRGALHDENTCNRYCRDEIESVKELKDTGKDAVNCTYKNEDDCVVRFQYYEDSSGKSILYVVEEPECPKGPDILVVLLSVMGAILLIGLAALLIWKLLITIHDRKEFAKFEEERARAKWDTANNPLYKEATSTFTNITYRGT

Substance: Integrilin (peptide)
- IC50 (read off the curve), ADP-induced platelet aggregation (AIPA) in human PRP: 0.2 µM
